These results are taken from patent US20180371091A1 (JOUNCE THERAPEUTICS, published 2018).

Sequences and labels used below:
T1: human ICOS (full length, on cells) (human, UniProt Q9Y6W8 21-199)
T1 construct: also called CHO-hICOS; human ICOS+ CHO cells
T1 sequence: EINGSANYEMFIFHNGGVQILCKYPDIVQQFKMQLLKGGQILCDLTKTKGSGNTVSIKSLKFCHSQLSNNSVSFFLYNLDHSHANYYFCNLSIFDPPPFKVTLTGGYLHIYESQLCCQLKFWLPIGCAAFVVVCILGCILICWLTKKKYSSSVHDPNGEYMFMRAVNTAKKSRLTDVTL

T2: hICOSL-mG2a (human; mouse, UniProt O75144 19-256, limits assumed)
T2 construct: also called hICOSL-mG2a Fc; not shown: mouse IgG2a Fc
T2 sequence (looked up): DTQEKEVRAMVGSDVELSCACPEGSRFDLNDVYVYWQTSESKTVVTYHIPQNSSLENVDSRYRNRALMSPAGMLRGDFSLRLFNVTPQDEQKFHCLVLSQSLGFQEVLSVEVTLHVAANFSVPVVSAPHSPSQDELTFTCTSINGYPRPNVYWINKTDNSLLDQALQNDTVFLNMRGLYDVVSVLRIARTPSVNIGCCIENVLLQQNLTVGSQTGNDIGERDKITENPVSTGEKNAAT

T3: mouse ICOS-hFc (homodimeric, bivalent) (mouse; human, UniProt Q9WVS0 21-142)
T3 construct: also called mICOS-hFc; mouse ICOS-Fc; not shown: human IgG1 Fc (IgG1 backbone)
T3 sequence: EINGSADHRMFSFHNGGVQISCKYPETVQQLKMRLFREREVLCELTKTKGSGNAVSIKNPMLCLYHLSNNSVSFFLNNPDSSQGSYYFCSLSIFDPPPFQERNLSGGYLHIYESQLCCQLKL

T4: mouse ICOS (full length, on cells) (mouse, UniProt Q9WVS0 21-200)
T4 construct: also called CHO-mICOS; mouse ICOS+ CHO cells
T4 sequence: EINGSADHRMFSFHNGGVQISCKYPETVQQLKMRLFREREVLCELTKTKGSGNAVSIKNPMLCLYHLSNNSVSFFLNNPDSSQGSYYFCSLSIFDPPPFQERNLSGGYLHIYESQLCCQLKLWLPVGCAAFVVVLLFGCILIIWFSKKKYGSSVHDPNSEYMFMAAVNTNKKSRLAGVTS

T5: cynomolgus ICOS-Fc (homodimeric, bivalent) (cynomolgus monkey, UniProt Q9Y6W8 21-140 (human entry))
T5 construct: also called cynoICOS-Fc; cyno ICOS-Fc; not shown: human IgG1 Fc (IgG1 backbone)
T5 chain: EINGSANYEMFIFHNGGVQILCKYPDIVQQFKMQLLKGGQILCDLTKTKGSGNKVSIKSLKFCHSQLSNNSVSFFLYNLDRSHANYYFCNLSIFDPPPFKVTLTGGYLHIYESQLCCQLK

T6: mouse CD28 Fc fusion (dimeric) (mouse, UniProt P31041 20-150)
T6 construct: not shown: Fc part not described
T6 sequence (looked up): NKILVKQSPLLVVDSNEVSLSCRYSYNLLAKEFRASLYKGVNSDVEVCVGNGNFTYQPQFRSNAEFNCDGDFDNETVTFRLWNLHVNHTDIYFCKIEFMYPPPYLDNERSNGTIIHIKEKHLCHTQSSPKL

T7: human BTLA Fc fusion (dimeric) (human, UniProt Q7Z6A9 31-157)
T7 construct: not shown: Fc part not described
T7 sequence (looked up): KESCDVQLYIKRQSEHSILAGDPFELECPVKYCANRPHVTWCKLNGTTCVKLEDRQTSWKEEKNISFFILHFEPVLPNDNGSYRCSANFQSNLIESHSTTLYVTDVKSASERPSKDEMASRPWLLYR

T8: mouse BTLA Fc fusion (dimeric) (mouse, UniProt Q7TSA3 30-183)
T8 construct: not shown: Fc part not described
T8 sequence (looked up): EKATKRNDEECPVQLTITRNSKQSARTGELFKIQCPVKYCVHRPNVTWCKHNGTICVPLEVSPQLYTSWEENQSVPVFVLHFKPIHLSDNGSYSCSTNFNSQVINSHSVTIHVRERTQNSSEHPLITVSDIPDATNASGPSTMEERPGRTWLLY

T9: mouse PD-1 Fc fusion (dimeric) (mouse, UniProt Q02242 25-167)
T9 construct: not shown: Fc part not described
T9 sequence (looked up): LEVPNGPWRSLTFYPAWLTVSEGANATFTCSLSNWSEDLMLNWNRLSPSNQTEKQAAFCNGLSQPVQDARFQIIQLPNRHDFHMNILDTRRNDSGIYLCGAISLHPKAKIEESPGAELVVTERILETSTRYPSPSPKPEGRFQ

T10: human CTLA-4 Fc fusion (dimeric) (human, UniProt P16410 37-162)
T10 construct: not shown: Fc part not described
T10 sequence (looked up): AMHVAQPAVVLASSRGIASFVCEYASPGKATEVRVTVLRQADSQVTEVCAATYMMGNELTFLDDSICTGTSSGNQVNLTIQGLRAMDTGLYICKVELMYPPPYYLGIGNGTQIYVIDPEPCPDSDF

T11: monovalent, heterodimeric human ICOS-Fc (human)
T11 construct: Make-up of the heterodimer is not described; also called Monomeric hICOS; monomeric form of human ICOS; not shown: The human IgG1 Fc fused to ICOS, and the partner Fc chain of the heterodimer
T11 chain: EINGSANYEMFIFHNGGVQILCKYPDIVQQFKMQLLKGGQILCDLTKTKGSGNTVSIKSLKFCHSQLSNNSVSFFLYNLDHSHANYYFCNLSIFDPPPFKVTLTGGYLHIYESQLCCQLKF

B1: 2M19 (antibody, V domains shown)
VH: EVQLQQSGAELVRSGASVKLSCTTSAFNIIDYYMHWVIQRPEQGLEWIAWIDPENGDPEYAPKFQDKATMTTDTSSNTAYLQLSSLTSEDTAVYYCTAWRGFAYWGQGTLVTVSA
VL: DVVMTQTPLSLPVSLGDQASISCRSSQSLVHSNGNTYLHWYLQKPGQSPKLLIYKVSNRFSGVPDRFSGSGSGTDFTLKISRVEAEDLGVYFCSQSIHVPPTFGGGTKLEIK
notes: Purified mouse monoclonal from a hybridoma; also called anti-ICOS mAb 2M19
B2: human ICOS-hFc (homodimeric, bivalent) (Fc fusion)
chain: T11 chain
notes: also called hICOS-Fc; hICOS-hFc; not shown: human IgG1 Fc (IgG1 backbone)
B3: 2M13 (antibody, V domains shown)
VH: EVQLQQSGAELVRPGAVVKLSCKASGFDIKDYYMHWVQQRPEQGLEWIGWIDPENGNAVYDPQFQGKASITADTSSNTAYLQLSSLTSEDTAVYYCASDYYGSKGYLDVWGAGTTVTVSS
VL: QIVLTQSPTIMSASPGEKVTITCSASSSVSYMHWFQQKPGTSPKLWIYSTSNLASGVPARFGGSRSGTSYSLTISRMEAEDAATYYCQQRSSYPFTFGSGTKLEIK
notes: Purified mouse monoclonal from a hybridoma; also called anti-ICOS antibody (2M13); anti-ICOS mAb 2M13
B4: 35A9 (antibody, V domains shown)
VH: EVQLVESGGGLVKPGGSLKLSCAASGFTFSDYWMDWVRQAPGKGLEWVGNIDEDGSIAEYSPFVKGRFTISRDNVKNTLYLQMNSVKSEDTATYYCSRWGRFAFDSWGQGTLVTVSS
VL: DIVMTQSPSSLAVSAGDRVTINCKSSQSLLSGSFNYLTWYQQKTGQAPKLLIFYASTRHTGVPDRFMGSGSGTDFTLTINSFQTEDLGDYYCHHHYNAPPTFGPGTKLELR
notes: Armenian hamster monoclonal tested as IgG; also called hamster anti-ICOS 35A9

The target in assay [1] is T1, human ICOS (full length, on cells). The assay is described as follows: cell-based ELISA on fixed, permeabilised CHO cells expressing human ICOS, chemiluminescence (RLU). Here is the method: Chinese Hamster ovary (CHO) cells stably transfected with ICOS overexpressing plasmid (CHO-ICOS) or control plasmid (CHO-vector) were used to screen positive clones from the peptide ELISA assay using established protocols. Briefly, cells grown in 96 well plates were fixed and permeabilized using 10% formalin with 0.1% Triton X-100. Following blocking, cells were incubated with primary antibody, followed by HRP-conjugated anti-mouse antibody. Detection was carried out using chemiluminescence substrate. Commercial anti-ICOS antibody, SP98 (Spring Biosciences) was used as a positive control and mouse IgG1 was used as a negative control for the assay.
On the technique in general: An ELISA detects its analyte on a solid surface through an enzyme-linked reagent.

The target of the next assay is T2, hICOSL-mG2a. Description: BLI, bivalent binding to homodimeric ICOS-Fc. A general note: Biolayer interferometry detects binding as a change in optical thickness at a sensor tip.
Assay [2] deals with T3, mouse ICOS-hFc (homodimeric, bivalent). The assay is described as follows: BLI. Here is the method:
(§1) Cross-reactivity measurements were conducted using BLI technology with antibody panels being screened for binding to human, mouse, and cynomolgus ICOS-Fc fusions (homodimeric, bivalent forms).

Assay [3] deals with T4, mouse ICOS (full length, on cells). The assay is described as follows: flow cytometry on ICOS+ CHO cells. From the text: To assess specificity, binding to human ICOS+ CHO cells and mouse ICOS+ CHO cells was individually analyzed by flow cytometry. As a control to screen out pan-reactive antibodies, staining on CHO cells lacking ICOS receptor expression was also examined. All of the selected antibodies bound to human and mouse ICOS+ CHO cells, and not to CHO cells lacking ICOS expression.
(A flow cytometer gives signals particle by particle.)

The target in assay [4] is B2. Description: BLI, bivalent binding to homodimeric ICOS-Fc. Here is the method:
as §1

In assay [5] the target is T5, cynomolgus ICOS-Fc (homodimeric, …). Description: BLI, bivalent binding to homodimeric ICOS-Fc. Here is the method:
as §1

Assay [6] deals with T12, human CD28 Fc fusion (dimeric) (human, UniProt P10747 19-152).
T12 construct: not shown: Fc part not described
T12 sequence (P10747 19-152): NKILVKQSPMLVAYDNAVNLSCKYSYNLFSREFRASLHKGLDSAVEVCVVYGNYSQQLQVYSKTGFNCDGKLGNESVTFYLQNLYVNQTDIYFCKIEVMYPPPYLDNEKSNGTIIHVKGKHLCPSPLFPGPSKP
Description: binding to dimeric Fc fusions of CD28 family members. Here is the method: (§2) To further assess the specificity of the anti-ICOS antibodies, the antibodies were screened for binding to additional members of the CD28 protein family (CD28, BTLA, PD-1 and CTLA-4). […] Specifically, binding to Fc fusions (of CD28, BTLA, PD-1 and CTLA-4) in dimeric forms was evaluated, and no binding was observed. For a subset of the CD28 family members, mouse or human protein was over-expressed on the surface of HEK293 and CHOK1 cells. No binding of antibody above background relative to untransduced parental cells was observed.

Assay [7] has as its target T6, mouse CD28 Fc fusion (dimeric). Described as above. Here is the method: as §2
Assay [8] concerns the target T7, human BTLA Fc fusion (dimeric). The description is as above. Here is the method:
as §2

Assay [9] deals with T8, mouse BTLA Fc fusion (dimeric). Described as above. Here is the method:
as §2

Assay [10] deals with T13, human PD-1 Fc fusion (dimeric) (human, UniProt Q15116 25-167).
T13 construct: not shown: Fc part not described
T13 sequence (Q15116 25-167): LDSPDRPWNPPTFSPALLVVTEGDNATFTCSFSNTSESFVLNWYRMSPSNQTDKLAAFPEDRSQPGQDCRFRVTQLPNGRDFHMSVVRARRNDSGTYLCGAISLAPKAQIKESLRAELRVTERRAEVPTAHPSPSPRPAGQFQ
The assay is described as above. Here is the method: as §2

For assay [11], the target named is T9, mouse PD-1 Fc fusion (dimeric). Described as above. Here is the method: as §2
Assay [12] has as its target T10, human CTLA-4 Fc fusion (dimeric). Described as above. Here is the method:
as §2

For assay [13], the target named is T14, mouse CTLA-4 Fc fusion (dimeric) (mouse, UniProt P09793 36-162).
T14 construct: not shown: Fc part not described
The assay is described as above. Here is the method: as §2

In assay [14] the target is T11, monovalent, heterodimeric human ICOS-Fc. The assay is described as follows: BLI (Octet RED96), IgG vs monovalent heterodimeric ICOS-Fc. Here is the method:
(§3) Affinity measurements were conducted using Bio-Layer Interferometry (BLI) technology (ForteBio Octet® RED96). The monovalent affinities were generated with IgG versions of the antibodies with monovalent, heterodimeric forms of the ICOS receptor. The avid affinities were generated using full-length IgGs against homodimeric forms of the ICOS receptor.

In assay [15] the target is B2. The assay is described as follows: BLI (Octet RED96), full-length IgG vs homodimeric ICOS-Fc (avid). Here is the method:
as §3

Assay [16] addresses B2. Description: BLI (Octet RED96), full-length IgG vs homodimeric ICOS-Fc (avid); bivalent (homodimeric) hICOS, avid; not monomeric hICOS. Here is the method:
as §3

Turning to B1, the binding result in [1] is “binds”.
In the assay with hICOSL-mG2a, B2 yielded a Kd of 0.362 nM, a koff of 0.000341 s⁻¹ and a kon of 941000 M⁻¹ s⁻¹.
As to B3, in [1], the binding result is recorded as “binds”.
As to B4, the binding result in [2] is “binds”; in [3], “binds”; in assay [6] it was “no binding”; in assay [7], “no binding”; in [8], “no binding”; in [9], “no binding”. For the same molecule, the binding result in [10], in assay [11], in assay [12] and in assay [13] was “no binding” each time. Further, the Kd is < 0.001 nM in assay [4], < 0.001 nM in [5], 2.45 nM in [14] and < 0.001 nM in [16]. The koff was < 1e-07 s⁻¹ in assay [4], < 1e-07 s⁻¹ in [5], 0.000438 s⁻¹ in [14] and < 1e-07 s⁻¹ in assay [15]. The kon in [4] stood at 1.01e+06 M⁻¹ s⁻¹; in assay [5], 740000 M⁻¹ s⁻¹; in assay [14], 178000 M⁻¹ s⁻¹; in assay [15] it was 625000 M⁻¹ s⁻¹.

As a reminder, the koff is the first-order rate constant of dissociation. The kon is the rate constant with which the complex forms. A higher kon goes with faster complex formation.
